Measured values as given in publication PMC2858704.

molecular target: T1, PefR (Gbs1402) (Streptococcus agalactiae NEM316) (UniProt Q8E4J9); experiment: EMSA; conditions: EMSA: 5% glycerol, 20 mM Tris-HCl pH 8, 50 mM KCl, 0.2 mM MgCl2, 1 mM EDTA, 0.2 mM DTT, 0.3 uM BSA, 15 ul, 37 C 20 min; 8% PAGE in 1x TBE, ethidium bromide …
T1 sequence: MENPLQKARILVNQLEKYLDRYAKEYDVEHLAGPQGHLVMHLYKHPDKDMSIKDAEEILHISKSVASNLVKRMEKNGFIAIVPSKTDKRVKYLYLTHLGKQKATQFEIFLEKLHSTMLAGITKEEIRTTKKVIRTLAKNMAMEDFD

**Q.** How did the binding turn out when “ATTTGTATTTTACTATCATTTACATTAAAAATCAATATAAATTTATAATTAAAAATATAAAAAGCGAACATATATTTTTAATATTAAAAAGTAAGCGAAATCATTTTTTATTTGACGAATGATAGGTTTTTTTTAGAAATATTAATGTAAAAATAGTTCTCACGGTAACTTTTAATTGACAATTAATAAAGGTTGTTTTAAAATAGTTCTCACGATAACTATTAAAGGAGTATTATTATGGAGAATC (double strand) [pefRCD promoter fragment (248 bp)]” was run?
**A.** binds

**Q.** With “CTTGTTGAGCCGTTGACAACGAAATGTTAAAGCTATTCATCAAAGTTGGGATAGCCGTTCCCAAACTTGTCTGATTTAACACCCCTGCAAATGTAGCAATCAACAATAAGGTGATC (double strand) [control pefA internal fragment (116 bp)]” as the sequence, how does the binding read?
**A.** no binding

**Q.** How did the binding turn out when “GCGTAGAAGTCATTAAATGGAGAACGCTTTATTAGGAAAAATAGTGGGGAGATATTTTAGAAAAAGGAAATAATGATGTTTTGAAAAAAATAGTTTCTATGAGAATCTTTTTCTTGACAATAAAATTTAGCTATTATAAAATAGTTCTCACGATAACTAAAATAATGATTTTTTCAGAAAATAATATTATTTATTGATTAAAAAATCAAAAAATAACCTTATAAGACCTATTTGTTATTCTTAAAAGATATTAGTTAAAATCAGAAATAGAGATTGGAGATA (double strand) [pefAB promoter fragment (281 bp)]” was run?
**A.** binds
